Literature values in publication PMC6002756.

Key:
E-cadherin (X-dimer) ECD = E-cadherin (X-dimer) ECD (UniProt P12830)
E-cadherin ECD = E-cadherin ECD (UniProt P12830)

Chain of E-cadherin ECD (P12830 155-709): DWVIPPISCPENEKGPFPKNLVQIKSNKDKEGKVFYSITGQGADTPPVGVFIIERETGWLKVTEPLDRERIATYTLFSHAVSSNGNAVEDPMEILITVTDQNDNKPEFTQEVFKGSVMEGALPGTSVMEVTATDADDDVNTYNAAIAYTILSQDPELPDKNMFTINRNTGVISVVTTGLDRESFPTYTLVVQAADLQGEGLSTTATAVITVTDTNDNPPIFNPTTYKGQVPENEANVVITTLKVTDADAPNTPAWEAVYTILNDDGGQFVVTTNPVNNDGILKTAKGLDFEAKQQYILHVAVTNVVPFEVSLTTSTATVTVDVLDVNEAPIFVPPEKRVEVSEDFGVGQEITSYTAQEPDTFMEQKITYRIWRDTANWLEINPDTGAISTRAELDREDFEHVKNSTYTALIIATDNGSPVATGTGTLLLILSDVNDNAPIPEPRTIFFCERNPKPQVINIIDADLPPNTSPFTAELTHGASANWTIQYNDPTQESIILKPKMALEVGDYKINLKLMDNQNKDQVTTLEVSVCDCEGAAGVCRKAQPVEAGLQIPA
Chain of E-cadherin (X-dimer) ECD (P12830 155-709): as above

Kd (E-cadherin (X-dimer) ECD) [µM]	Kd (E-cadherin ECD) [µM]	Substance
900		E-cadherin (X-dimer) ECD (from UniProt P12830)
	100	E-cadherin ECD (from UniProt P12830)
